Experimental data reported in the DeepSol protein solubility set.

Assay: soluble on expression in E. coli; label from the status in PepcDB or PDB records
With “SAAEEEDEVEWVVESIAGFLRGPDWSIPILDFVEQKCEVFDDEEESKLTYTEIHQEYKELVEKLLEGYLKEIGINEDQFQEACTSPLAKTHTSQAILQPVLAAEDFTIFKAMMVQKNIEMQLQAIRIIQERNGVLPDCLTDGSDVVSDLEHEEMKILREVLRKSKEEYDQEEERKRKKQLSEAKTEEPTVHSSEAAIMNNSQGDGEHFAHPPSEVKMHFANQSIEPLGRKVERSETSSLPQKGLKFPGLEHASIEGPIANLSVLGTEELRQREHYLKQKRDKLMSMRKDMRTKQIQNMEQKGKPTGEVEEMTEKPEMTAEEKQTLLKRRLLAEKLKEEVINK” the “soluble on expression in E. coli” value was “soluble”. With “SAAKALKDLKNLPVSERNIDYKTKLLVGKMNGTAEDKPPQNSVPFDHNHPKGDEIEKPEAERVIVEIEYIESKDLNNVTQVDAVLKSLVTELDSKDWVLVCDALNTIRRLSIFHKEEMLHMLEKVILFIVKSLKNPRSAVSKTACMTSADIFSSYNDHTIDQLDLLLTQLLLKSSQDKRFVCEAAEKALVAMTAHVSPALLLPKLQPFLKNRNPRIRAKASTCFSRCVPRLGIEGIREYGIEKLVQAASSQLSDQLPESREAARAVLLELQTVYKKTTNVEPKEEHPEPVTWQIFCQSNLSPLSAQAVIRVTNVAGVAREGLVAGS” the “soluble on expression in E. coli” value was “soluble”. With “SAAPMSNVDEIRDRVILGEFGVKNVHTTDYPGNYPGYDDTWDFEKFKKNFRIEIISSDENTLEFDMIGIDAAIANAFRRILLAEVPTMAIEKVFIYNNTSIIQDEILAHRLGLVPIKADPRLFEYRNSEDQEGTEIDTIQLQLKVKCTRNPRAPKDSSDPKELYLNHMIYSGDIKWLPIGNQADVFADAKIGPVHGDILLAQVRPGQELDIVMHCVKGIGKDHAKFSPVATASYRLLPEITLLQTIEGEQAERLKRCFSPGVIELENVNGRKVAKVVNSRLDTCSREVLRHDDLKSLVKLGRVRDHFIFSVESTGILPPDVLVTEAINVLMSKCQKFLTELEATEMD” the “soluble on expression in E. coli” value was “soluble”. For “SADEEEEVKPILQKLQELVDQLYSFRDCYFETHSVEDAGRKQQDVRKEMEKTLQQMEEVVGSVQGKAQVLMLTGKALNVTPDYSPKAEELLSKAVKLEPELVEAWNQLGEVYWKKGDVAAAHTCFSGALTHCRNKVSLQNLSMVLRQLRTDTEDEHSHHVMDSVRQAKLAVQMDVHDGRSWYILGNSYLSLYFSTGQNPKISQQALSAYAQAEKVDRKASSNPDLHLNRATLHKYEESYGEALEGFSRAAALDPAWPEPRQREQQLLEFLDRLTSLLESKGKVKTKKLQSMLGSLRPAHLGPCSDGHYQSASGQKVTLELKPLSTLQPGVNSGAVILGKVVFSLTTEEKVPFTFGLVDSDGPCYAVMVYNIVQSWGVLIGDSVAIPEPNLRLHRIQHKGKDYSFSSVRVETPLLLVVNGKPQGSSSQAVATVASRPQCE”, the “soluble on expression in E. coli” value was “soluble”. With “SADSEADKPLRKISAAFKKLAIIVNSPNPEVPVTQFSHACSLVSPLFGCLGIAFKFAEMDYVAKVDDLVRASSSISTLVVMMDKDIEADCVRKAGSHTRNLLRVKRGLDMVKVLFEQIIASEGDNSLKDPATKSYAQVFAPHHGWAIRKAVSLGMYALPTRAHLLNMLKEDEAAAKIHMQSYVNSSAPLITYLDNLFLSKQLGIDW” the “soluble on expression in E. coli” value was “soluble”. For “SAKGGKGPKGKKITLNVAKNCIKITFDGRKRLDLSKMGITTFPKCILRLSDIDELDLSRNMIRKIPDSIAKFQNLRWLDLHSNYIDKLPESIGQMTSLLFLNVSNNRLTTNGLPVELNQLKNIRTVNLGLNHLDSVPTTLGALKELHEVGLHDNLLTTIPASIAKLPKLKKLNIKRNPFPNADESEMFVDSIKRLENLYLVEEKDMCSSCLQRCQQARDKLNKIKSMAPSAPRKALFSNLVSPNSTAKDAQEEWR”, the “soluble on expression in E. coli” value was “soluble”. For “SANAEVSVPVGDVVVVPTEGNEGENPEDTKTQVILQLQPVQQGIYEAGSENNTAVVAVETHTIHKIEEGIDTGTIEANEDMEIAYPITCGESKAILLWKKFVCPGINVKCVKFNDQLISPKHFVHLAGKSTLKDWKRAIRLGGIMLRKMMDSGQIDFYQHDKVCSNTCRSTKFDLLISSARAPVPGQQTSVVQTPTSADGSITQIAISEESMEEAGLEWNSALTAAVTMATEEGVKKDSEEISEDTLMFWKGIADVGLMEEVVCNIQKEIEELLRGVQQRLIQAPFQVTDAAVLNNVAHTFGLMDTVKKVLDNRRNQVEQGEEQFLYTLTDLERQLEEQKKQGQDHRLKSQTVQNVVLMPVSTPKPPKRPRLQRPASTTVLSPSPPVQQPQFTVISPITITPVGQSFSMGNIPVATLSQGSSPVTVHTLPSGPQLFRYATVVSSAKSSSPDTVTIHPSSSLALLSSTAMQDGSTLGNMTTMVSPVELVAMESGLTSAIQAVESTSEDGQTIIEIDPAPDPEAEDTEGKAVILETELRTEEKVVAEMEEHQHQVHNVEIVVLED”, the “soluble on expression in E. coli” value was “soluble”. For “SAPAAALKKAAEAAEPATVTEDATDLQNEVDQELLKDMYGKEHVNIVFIGHVDAGKSTLGGNILFLTGMVDKRTMEKIEREAKEAGKESWYLSWALDSTSEEREKGKTVEVGRAYFETEHRRFSLLDAPGHKGYVTNMINGASQADIGVLVISARRGEFEAGFERGGQTREHAVLARTQGINHLVVVINKMDEPSVQWSEERYKECVDKLSMFLRRVAGYNSKTDVKYMPVSAYTGQNVKDRVDSSVCPWYQGPSLLEYLDSMTHLERKVNAPFIMPIASKYKDLGTILEGKIEAGSIKKNSNVLVMPINQTLEVTAIYDEADEEISSSICGDQVRLRVRGDDSDVQTGYVLTSTKNPVHATTRFIAQIAILELPSILTTGYSCVMHIHTAVEEVSFAKLLHKLDKTNRKSKKPPMFATKGMKIIAELETQTPVCMERFEDYQYMGRFTLRDQGTTVAVGKVVKILD”, the “soluble on expression in E. coli” value was “soluble”. For “SAVVPASLSGQDVGSFAYLTIKDRIPQILTKVIDTLHRHKSEFFEKHGEEGVEAEKKAISLLSKLRNELQTDKPFIRLVEKFVDTDIWNQYLEYQQSLLNESDGKSRWFYSPWLLVECYIDRRIHEAIIQSPPIDYFDVFKESKEQNFYGSQESIIALCTHLQQLIRTIEDLYENQLKDEFFKLLQISLWGNKCDLSLSGGESSSQNTNVLNSLEDLKPFILLNDMEHLWSLLSNCKKTREKASATRVYIVLDNSGFELVTDLILADFLLSSELATEVHFYGKTIPWFVSDTTIHDFNWLIEQVKHSNHKWMSKCGADWEEYIKMGKWVYHNHIFWTLPHEYCAMPQVAPDLYAELQKAHLILFKGDLNYRKLTGDRKWEFSVPFHQALNGFHPAPLCTIRTLKAEIQVGLQPGQGEQLLASEPSWWTTGKYGIFQYDGPL”, the “soluble on expression in E. coli” value was “not soluble”. In the case of “SDDFDMLSAPQGSAGNGVGADEDPAAAFLAQQESEIAGIENDEGFSILDSGDVPSSLSQDQDGGAMNGDLHGESNGPSDVYAAISSVDRLQAEPESLRKWREEQRDRLEELDANSRKQEAEWKEKAKLELEEWHTRQNEQLEKTKVNNRVLDEDFYKQPFADLIGYVTHINHPCYRLDQAAEEAMVSELDENSPGTEWERVARLCDFNPKSSKQAKDVSRMRSVLISLKQAPLVR”, the “soluble on expression in E. coli” value is reported as “soluble”. In the case of “SDDTLFQLKFTAKQLEKLAKKAEKDSKAEQAKVKKALQQKNVECARVYAENAIRKKNEGVNWLRMASRVDAVASKVQTAVTMKGVTKNMAQVTKALDKALSAMDLQKVSAVMDRFEQQVQNLDVHTSVMEDSVSSATTLTTPQEQVDSLIVQIAEENGLEVLDQLSQLPEGASAVGESSVRSQEDQLSRRLAALRN”, the “soluble on expression in E. coli” value is reported as “soluble”. With “SDEINAQSVWSEEISSNYPLCIKNLMEGLKKNHHLRYYGRQQLSLFLKGIGLSADEALKFWSEAFTNMTMEKFNKEYRYSFRHNYGLEGNRINYKPWDCHTILSKPRPGRGDYHGCPFRDWSHERLSAELRSMKLTQAQIISVLDSCQKGEYTIACTKVFEMTHNSASADLEIGEQTHIAHPNLYFERSRQLQK” the “soluble on expression in E. coli” value was “soluble”. With “SDERDVLWVGVCAMPKKVESEPMQRILAALTSSRVAHFEPMIFDAKTLFERPIHKWPVCDALIAFHSEGFPLERAIAYAELRRPYCLNGLREQRMLLDRSKVYEVLARERVPVPRHIVVRHDGADVGRTDTRFVEHDDYIEYCGERLFKPFVEKPIDAEDHRVCIYYARPLYGRRRLFRKTANQSSVFEPGWRRVRREGAFIYEEFIPSEHQSDIKVYAVGPEYAYAERRKSPVVDGIVERNAHGKELRFPVELSTAERCVAATITAAFRQFVCGFDLIRHADGNAFYVNDVNGFSFVKGSQSYYESCGRILAEHLARECARSAAVDGE” the “soluble on expression in E. coli” value was “soluble”. With “SDESDLPSAMPAVPAFGVEERNMVSGVLTLAERSIRSIMTPRTDVSWVNIDDDAATIRQQLTAAPHSFFPVCRGSLDEVVGIGRAKDLVADLITEGRVRRNRLRDPIIVHESIGILRLMDTLKRSRGQLVLVADEFGAIEGLVTPIDVFEAIAGEFPDEDELPDIVAESE” the “soluble on expression in E. coli” value was “soluble”. For “SDFANLSSTNKELSPQYNWVACGILEGGLKAAGVLEEGQYNRELAEAIAAKGEGFWTTQFPQIGDWNEDQAAALADRAQTCGLVKADTYLSELSSNFSS”, the “soluble on expression in E. coli” value was “soluble”. With “SDHFNAPVGMLEAITSVEGVDRVVPTIEMTGVAKTDSAFAGILLMGDNSLRTRNPLFGQTVSGNYPSFSSADTVPNPILLPQVTADKLHLKIGDKLRIYFAGTERMRLRAFTVAGVYSGGKMDMPVGLVSADVLRRVGGLGADDVSRLLIYASDPDETDLIVTRVFDRLSETLYVGEQRLTINTATELNPMIMDWLSALDTN” the “soluble on expression in E. coli” value was “not soluble”. In the case of “SDIEQKQAEIIDQLVKRASTCKSEALGPLIIEATSHPSLFAFSEILALPNVAQLEGTTDSVYLDLLRLFAHGTWGDYKCNATRLPHLSPDQILKLKQLTVLTLAESNKVLPYDTLMVELDVSNVRELEDFLINECMYAGIVRGKLDQLKRCFEVPFAAGRDLRPGQLGNMLHTLSNWLNTSENLLISIQDKIKWADNMSEMDKKHRKEAEEGVEEVKKSLSMKGDVDIRGNKEMFGEPSGVMDYEEDGIRPKRRRHPVTR”, the “soluble on expression in E. coli” value is reported as “soluble”. In the case of “SDNDLKLLALESETIRSVADLHNKRVGMIRASASEFYFDSLLLANNLKGIPIDKVYGTADQLYQQLFDKQLDAISIWEPWGYKIGVAAESKVTNLSLPGIYTLSFNLLTMKPTTEEEKQRSLAILKA”, the “soluble on expression in E. coli” value is reported as “not soluble”. With “SDPAGASVASAIGGEGEKFAVGNIYSVKVITGDEFRGIVMAYDPIPNFVFFEEGTKPRPGHLKNTRMVNASFITGLSYLGKTEDPFDSDNFSVDLNGLRAKEALAIRQAEADAERMGVGVTAEAQSIFDALSKTLPVQWENSDILVMKEVRVRSPYLSDCVFGGTDAANNRVKKVLELERRRLQLFGT” the “soluble on expression in E. coli” value was “soluble”. For “SEDCCMLPYYTAQSSPAMGMFNTSMGKLQRQLYKGEYTIFRYAPMFESDFIQISKRGEVIDVHNRARMVTMGIVRTSPCLTLPDVMLLARPAAVCDNARCGPATQKRESPPAEILELTRLLPLMFVKITIHNSVKKQLHLKLATGRSFYLQLCPPSDASEDLFVHWENLVYILRPPVEAYSDTRAILAGNTLDSSVLEEVQRSPVGYAMKFCEEKEQFRISRLHMNAEMFGSTYCDYTIEI”, the “soluble on expression in E. coli” value was “soluble”. In the case of “SEMIVDHRQKAFELLKVDAEKILKLIRVQMDNLTMPQCPLYEEVLDTQMFGLSREIDFAVRLGLVDEKDGKDLLYTLERELSALHDAFTAK”, the “soluble on expression in E. coli” value is reported as “not soluble”. In the case of “SEQSSPGFRQTHLQDLSEATQDVKEENHYLTPRSVLLELDNIIASSDSGESIETDGPDQVSGRIECHYEPMESYFFKETSHESVDSSKEEPQTLPETQDGDLHLQEQGSGIDWCLSPADVEAQTTNDQKGSASLTVVQLSILINNIPDESQVEKLNVFLSPPDVINYLALTEATGRICVSQWEGPRRLGCIFCHGDHLLAVNDLKPQSLEEVSLFLTRSIQKEKLKLTIGRIPNSETFHAASCMCPSKCQSAAPSQLDKPRLNRAPKRSPAIKKSQQKGARE”, the “soluble on expression in E. coli” value is reported as “soluble”. With “SESETRVKSVRTGRKPIGNPEDEQETSKPSDDEFLRGKRVLVVDDNFISRKVATGKLKKMGVSEVEQCDSGKEALRLVTEGLTQREEQGSVDKLPFDYIFMDCQMPEMDGYEATREIRKVEKSYGVRTPIIAVSGHDPGSEEARETIQAGMDAFLDKSLNQLANVIREIESKR” the “soluble on expression in E. coli” value was “not soluble”.
